T1: extracellular domain of human CD79b (huCD79becd) (human, UniProt P40259 29-159)
T1 construct: expressed in CHO cells
T1 sequence: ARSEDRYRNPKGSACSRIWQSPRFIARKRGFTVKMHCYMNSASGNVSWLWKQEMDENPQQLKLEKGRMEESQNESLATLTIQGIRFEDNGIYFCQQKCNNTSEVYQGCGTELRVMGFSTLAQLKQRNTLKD

T2: human CD79b (human, UniProt P40259 29-229)
T2 construct: endogenous CD79b on B-cell lines (BJAB, BJAB-luciferase, DoHH-2); also called PRO36249; CD79b expressed on the surface of BJAB-luciferase cells
T2 sequence: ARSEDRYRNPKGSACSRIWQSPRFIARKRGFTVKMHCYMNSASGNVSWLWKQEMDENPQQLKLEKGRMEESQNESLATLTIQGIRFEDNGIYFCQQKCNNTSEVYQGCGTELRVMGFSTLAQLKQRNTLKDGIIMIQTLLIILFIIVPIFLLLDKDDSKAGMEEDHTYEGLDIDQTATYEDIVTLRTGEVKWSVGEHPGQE

B1: huMA79b graft variant with HVR-L3 of SEQ ID NO: 21 (Fab, name in Kabat numbering, V domains shown)
VH: EVQLVESGGGLVQPGGSLRLSCAASGYTFSSYWIEWVRQAPGKGLEWVGEILPGGGDTNYNEIFKGRFTISADTSKNTAYLQMNSLRAEDTAVYYCTRRVPVYFDYWGQGTLVTVSS
VL: DIQMTQSPSSLSASVGDRVTITCKASQSVDYDGDSFLNWYQQKPGKAPKLLIYAASNLESGVPSRFSGSGSGTDFTLTISSLQPEDFATYYCQQSNKDPLTFGQGTKVEIKR
notes: Fab on phage
B2: huMA79b graft variant with HVR-H1 of SEQ ID NO: 57 (huMA79b H1-6) (Fab, V domains shown)
VH: EVQLVESGGGLVQPGGSLRLSCAASGYPFTRYWINWVRQAPGKGLEWVGEILPGGGDTNYNEIFKGRFTISADTSKNTAYLQMNSLRAEDTAVYYCTRRVPVYFDYWGQGTLVTVSS
VL: DIQMTQSPSSLSASVGDRVTITCKASQSVDYDGDSFLNWYQQKPGKAPKLLIYAASNLESGVPSRFSGSGSGTDFTLTISSLQPEDFATYYCQQSNEDPLTFGQGTKVEIK
notes: Fab on phage; also called H1-6 mutation
B3: MA79b-grafted humanized antibody variant 18 (huMA79b.v18) (antibody, human IgG1, kappa)
light: DIQLTQSPSSLSASVGDRVTITCKASQSVDYDGDSFLNWYQQKPGKAPKLLIYAASNLESGVPSRFSGSGSGTDFTLTISSLQPEDFATYYCQQSNEDPLTFGQGTKVEIKRTVAAPSVFIFPPSDEQLKSGTASVVCLLNNFYPREAKVQWKVDNALQSGNSQESVTEQDSKDSTYSLSSTLTLSKADYEKHKVYACEVTHQGLSSPVTKSFNRGEC
heavy: not shown
notes: IgG
B4: thio huMA79b.v28-HC(A118C)-MCvcPAB-MMAE (antibody, human IgG1, kappa)
light: DIQLTQSPSSLSASVGDRVTITCKASQSVDYEGDSFLNWYQQKPGKAPKLLIYAASNLESGVPSRFSGSGSGTDFTLTISSLQPEDFATYYCQQSNEDPLTFGQGTKVEIKRTVAAPSVFIFPPSDEQLKSGTASVVCLLNNFYPREAKVQWKVDNALQSGNSQESVTEQDSKDSTYSLSSTLTLSKADYEKHKVYACEVTHQGLSSPVTKSFNRGEC
heavy: not shown
modifications: MC-val-cit-PAB-MMAE on the engineered Cys at EU position 118 (sequential position 118; Kabat position 114)
notes: TDC; also called thio huMA79b.v28-HC(A118C)-MC-val-cit-PAB-MMAE
B5: thio huMA79b.v28-HC(A118C)-BMPEO-DM1 (antibody, human IgG1, kappa)
light: DIQLTQSPSSLSASVGDRVTITCKASQSVDYEGDSFLNWYQQKPGKAPKLLIYAASNLESGVPSRFSGSGSGTDFTLTISSLQPEDFATYYCQQSNEDPLTFGQGTKVEIKRTVAAPSVFIFPPSDEQLKSGTASVVCLLNNFYPREAKVQWKVDNALQSGNSQESVTEQDSKDSTYSLSSTLTLSKADYEKHKVYACEVTHQGLSSPVTKSFNRGEC
heavy: not shown
modifications: BMPEO-DM1 on the engineered Cys at EU position 118 (sequential position 118; Kabat position 114)
notes: TDC
B6: thio huMA79b.v28-HC(A118C)-MC-MMAF (antibody, human IgG1, kappa)
light: DIQLTQSPSSLSASVGDRVTITCKASQSVDYEGDSFLNWYQQKPGKAPKLLIYAASNLESGVPSRFSGSGSGTDFTLTISSLQPEDFATYYCQQSNEDPLTFGQGTKVEIKRTVAAPSVFIFPPSDEQLKSGTASVVCLLNNFYPREAKVQWKVDNALQSGNSQESVTEQDSKDSTYSLSSTLTLSKADYEKHKVYACEVTHQGLSSPVTKSFNRGEC
heavy: not shown
modifications: MC-MMAF on the engineered Cys at EU position 118 (sequential position 118; Kabat position 114)
notes: TDC
B7: MA79b-grafted humanized antibody variant 32 (huMA79b.v32) (antibody, human IgG1, kappa, V domains shown)
VH: EVQLVESGGGLVQPGGSLRLSCAASGYTFSSYWIEWVRQAPGKGLEWIGEILPGGGDTNYNEIFKGRATFSADTSKNTAYLQMNSLRAEDTAVYYCTRRVPIRLDYWGQGTLVTVSS
VL: DIQLTQSPSSLSASVGDRVTITCKASQSVDYSGDSFLNWYQQKPGKAPKLFIYAASNLESGVPSRFSGSGSGTDFTLTISSLQPEDFATYYCQQSNEDPLTFGQGTKVEIKR
notes: IgG
B8: MA79b-grafted humanized antibody variant 28 (huMA79b.v28) (antibody, human IgG1, kappa)
light: DIQLTQSPSSLSASVGDRVTITCKASQSVDYEGDSFLNWYQQKPGKAPKLLIYAASNLESGVPSRFSGSGSGTDFTLTISSLQPEDFATYYCQQSNEDPLTFGQGTKVEIKRTVAAPSVFIFPPSDEQLKSGTASVVCLLNNFYPREAKVQWKVDNALQSGNSQESVTEQDSKDSTYSLSSTLTLSKADYEKHKVYACEVTHQGLSSPVTKSFNRGEC
heavy: not shown
notes: IgG
B9: thio huMA79b.v18-HC(A118C)-MC-MMAF (antibody, human IgG1, kappa)
light: DIQLTQSPSSLSASVGDRVTITCKASQSVDYDGDSFLNWYQQKPGKAPKLLIYAASNLESGVPSRFSGSGSGTDFTLTISSLQPEDFATYYCQQSNEDPLTFGQGTKVEIKRTVAAPSVFIFPPSDEQLKSGTASVVCLLNNFYPREAKVQWKVDNALQSGNSQESVTEQDSKDSTYSLSSTLTLSKADYEKHKVYACEVTHQGLSSPVTKSFNRGEC
heavy: not shown
modifications: MC-MMAF on the engineered Cys at EU position 118 (sequential position 118; Kabat position 114)
notes: TDC
B10: thio huMA79b.v18-HC(A118C)-MCvcPAB-MMAE (antibody, human IgG1, kappa)
light: DIQLTQSPSSLSASVGDRVTITCKASQSVDYDGDSFLNWYQQKPGKAPKLLIYAASNLESGVPSRFSGSGSGTDFTLTISSLQPEDFATYYCQQSNEDPLTFGQGTKVEIKRTVAAPSVFIFPPSDEQLKSGTASVVCLLNNFYPREAKVQWKVDNALQSGNSQESVTEQDSKDSTYSLSSTLTLSKADYEKHKVYACEVTHQGLSSPVTKSFNRGEC
heavy: not shown
modifications: MC-val-cit-PAB-MMAE on the engineered Cys at EU position 118 (sequential position 118; Kabat position 114)
notes: TDC
B11: thio huMA79b.v18-HC(A118C)-BMPEO-DM1 (antibody, human IgG1, kappa)
light: DIQLTQSPSSLSASVGDRVTITCKASQSVDYDGDSFLNWYQQKPGKAPKLLIYAASNLESGVPSRFSGSGSGTDFTLTISSLQPEDFATYYCQQSNEDPLTFGQGTKVEIKRTVAAPSVFIFPPSDEQLKSGTASVVCLLNNFYPREAKVQWKVDNALQSGNSQESVTEQDSKDSTYSLSSTLTLSKADYEKHKVYACEVTHQGLSSPVTKSFNRGEC
heavy: not shown
modifications: BMPEO-DM1 on the engineered Cys at EU position 118 (sequential position 118; Kabat position 114)
notes: TDC; also called huMA79b.v18-HC(A118C) thioMAb-BMPEO-DM1

How the values were obtained:
[1] = biological target: T1, extracellular domain of human CD79b …; test: phage selection, Fab on phage
Experimental: For phage selection, the extracellular domain of CD79b (huCD79becd) (2 μg/ml) was immobilized in PBS on MaxiSorp microtiter plates (Nunc) overnight at 4° C. Plates were blocked for at least 1 h using Casein Blocker (Pierce). Phage were harvested from the culture supernatant and suspended in PBS containing 0.5% BSA and 0.05% Tween 20 (PBSBT). Following addition of the phage library and phage selection for 2 h, microtiter wells were washed extensively with PBS containing 0.05% Tween 20 (PBST) to remove unbound phage and bound phage were eluted by incubating the wells with 100 mM HCl for 30 min. Selection stringency may be increased during successive rounds of selection by increasing the number of washes with PBST or by incubating with soluble huCD79becd for increasing time periods prior to elution.

[2] = biological target: T1, extracellular domain of human CD79b …; test: Biacore (SPR), IgG
Experimental: Binding of Fab and IgG variants of MA79b, the MA79b-grafted “humanized” antibody or MA79b-grafted “humanized” antibody variants to immobilized huCD79becd or huCD79b-Fc or the 16 amino acid peptide containing the epitope for MA79b was measured by surface plasma resonance. Affinity determinations were performed by surface plasmon resonance using a BIAcore™-2000. The antigen, huCD79becd or huCD79b-Fc was immobilized (approximately 50-200 RU) in 10 mM sodium acetate pH 4.8 on a CM5 sensor chip. Due to a large avidity effect, affinity measurements were sensitive to the amount of huCD79becd immobilized. For this reason, affinities, determined for samples run on different days, were normalized to MA79b that was run along side as a standard. In experiments that measured binding to the 16 amino acid peptide containing the epitope for MA79b ([…]) (SEQ ID NO: 16), the biotinylated peptide was captured (approximately 20 RU) on a streptavidin coated sensor chip. Purified MA79b-grafted “humanized” antibody variant (as Fab or IgG) (a 2-fold serial dilution of 0.5 to 1000 nM in PBST) was injected at a flow rate of 30 μL/min. Each sample was analyzed with 4-minute association and 10-minute disassociation. After each injection the chip was regenerated using 10 mM Glycine pH 1.7. […]

human CD79b [3] = biological target: T2, human CD79b; test: FACS on BJAB-luciferase cells
Experimental: The binding affinity of thio huMA79b.v18, thio huMA79b.v28 drug conjugates and thio MA79b drug conjugates to CD79b expressed on BJAB-luciferase cells was determined by FACS analysis. Further, the binding affinity of thio anti-cynoCD79b(ch10D10) drug conjugates to CD79b expressed on BJAB cells expressing cynoCD79b was determined by FACS analysis.
Briefly, approximately 1×10⁶ cells in 100 μl were contacted with varying amounts (1.0 μg, 01. μg or 0.01 μg of Ab per million cells of BJAB-luciferase cells or BJAB cells expressing cynoCD79b (for anti-cynoCD79b thioMAbs)) of one of the following anti-CD79b thioMAb drug conjugates or naked (unconjugated Ab as a control): (1) thio MA79b-LC(V205C)-MC-MMAF or (2) thio MA79b-HC(A118C)-MC-MMAF (FIGS. 29A-B, respectively); (3) thio huMA79b.v18-HC(A118C)-MC-MMAF, (4) thio huMA79b.v18-HC(A118C)-MC-vcPAB-MMAE or (5) thio huMA79b.v18-HC(A118C)-BMPEO-DM1 (FIGS. 30B-D, respectively); (6) thio huMA79b.v28-HC(A118C)-MCvcPAB-MMAE, (7) thio huMA79b.v28-HC(A118C)-BMPEO-DM1, or (8) thio huMA79b.v28-HC(A118C)-MC-MMAF (see FIGS. 31B-31D, respectively); or (9) thio anti-cynoCDb79(ch10D10)-HC(A118C)-MCvcPAB-MMAE, (10) thio anti-cynoCD79b(ch10D10)-HC(A118C)-BMPEO-DM1 or (11) thio anti-cynoCD79b(ch10D10)-HC(A118C)-MC-MMAF (see FIGS. 32B-32D, respectively). PE conjugated mouse anti-human Ig was used as the secondary detecting antibody (BD Cat#555787).

human CD79b [4] = biological target: T2, human CD79b; test: Scatchard analysis on BJAB cells stably expressing cynomolgus CD79b and endogenous human CD79b

Row | Binder | binding result (human CD79b [3]) | other results
1 | B1 |  | binding result [1]: binds
2 | B2 |  | binding result [1]: binds
3 | B3 |  | fold improvement in dimeric binding compared to variant 17 [2]: 2 fold
4 | B4 | binds | 
5 | B5 | binds | 
6 | B6 | binds | 
7 | B7 |  | Kd (human CD79b [4]): 0.24 nM
8 | B8 |  | Kd (human CD79b [4]): 0.44 nM
9 | B9 | binds | 
10 | B10 | binds | 
11 | B11 | binds | 

Reference: US20140335107A1 (published 2014)
